The values that follow are results of earlier work, collected in paper PMC4507496.

Data set [1] addresses ATG7 (Homo sapiens) (UniProt O95352). Particulars: cited from earlier work.
Data set [2] shares this target. Particulars: cited from earlier work. This is another data set of the same source.

Read-outs that look alike come from different tables or passages of the source.

Sequence of ATG7 (Homo sapiens) (O95352 2-703): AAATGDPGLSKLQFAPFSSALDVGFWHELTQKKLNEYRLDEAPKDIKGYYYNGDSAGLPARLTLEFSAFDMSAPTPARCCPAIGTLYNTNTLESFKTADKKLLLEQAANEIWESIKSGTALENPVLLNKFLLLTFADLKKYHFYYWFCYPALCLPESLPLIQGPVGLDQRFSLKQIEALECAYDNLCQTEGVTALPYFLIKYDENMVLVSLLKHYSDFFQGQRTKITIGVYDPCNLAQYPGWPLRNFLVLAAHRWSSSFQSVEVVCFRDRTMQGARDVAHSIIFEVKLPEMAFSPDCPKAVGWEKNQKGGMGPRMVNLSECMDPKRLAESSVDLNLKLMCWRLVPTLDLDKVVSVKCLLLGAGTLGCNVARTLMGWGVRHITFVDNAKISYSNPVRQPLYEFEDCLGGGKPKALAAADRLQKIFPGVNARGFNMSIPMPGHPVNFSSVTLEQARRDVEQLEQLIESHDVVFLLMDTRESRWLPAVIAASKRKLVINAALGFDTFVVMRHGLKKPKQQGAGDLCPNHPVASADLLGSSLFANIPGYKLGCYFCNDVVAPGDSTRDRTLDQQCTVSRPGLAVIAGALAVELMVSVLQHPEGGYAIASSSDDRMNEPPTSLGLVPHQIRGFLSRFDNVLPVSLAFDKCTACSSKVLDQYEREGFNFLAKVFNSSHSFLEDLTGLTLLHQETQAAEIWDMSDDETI
Sequence of ATG3 (Q9NT62 whole entry): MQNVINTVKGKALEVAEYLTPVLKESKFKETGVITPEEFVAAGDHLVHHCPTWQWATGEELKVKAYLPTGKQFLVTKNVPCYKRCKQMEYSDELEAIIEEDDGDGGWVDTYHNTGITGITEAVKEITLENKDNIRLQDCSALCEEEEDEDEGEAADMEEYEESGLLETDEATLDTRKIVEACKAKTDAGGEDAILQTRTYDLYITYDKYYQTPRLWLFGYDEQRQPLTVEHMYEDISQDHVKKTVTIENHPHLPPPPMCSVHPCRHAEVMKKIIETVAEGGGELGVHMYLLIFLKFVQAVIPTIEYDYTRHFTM
Sequence of ATG3 flexible region flexible region (Q9NT62 90-190): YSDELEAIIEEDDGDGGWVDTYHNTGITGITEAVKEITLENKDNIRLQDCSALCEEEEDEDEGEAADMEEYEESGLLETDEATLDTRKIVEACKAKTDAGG

For ATG3 (from UniProt Q9NT62), the Kd with ATG7 (Homo sapiens) [1] is 2200 nM.
As to “ATG3 flexible region flexible region (from UniProt Q9NT62)”, the Kd with ATG7 (Homo sapiens) [2] is over 70000 nM.
